Numbered stars: 1 amine (or outer) side, 2 acyl side, 3 side chain; on linkers, the order of the positions; unused ones are H or OH. Bridge positions count the residues as written; N and C are the ends. Square brackets hold non-standard residues; d marks the D form. * marks the point of attachment. C20 diacid = O=C(O)CCCCCCCCCCCCCCCCCCC(=O)*; γGlu = O=C(O)[C@H](CCC(=O)[*:2])N[*:1]; Hyp = O=C(O)[C@@H]1C[C@@H](O)CN1; NMeI = CC[C@H](C)[C@H](NC)C(=O)O; Aad = N[C@@H](CCCC(=O)O)C(=O)O; Sar = CNCC(=O)O
How the values were obtained:
[1] = Physical stability evaluation by ThT-stress test (ASSAY IIId), lag-time of fibril formation; type: physicochemical; settings: for ThT lag time: 1 mg/ml CPD 1, 20 mM TRIS, 118 mM NaCl
Procedure: Physical Stability Evaluation by ThT-Stress Test (ASSAY IIId)
A 1 mM ThT stock solution was prepared and 12 μL was mixed with 288 μL of CPD 1 formulation. Samples were loaded in a 96-well black fluorescence plate (clear bottom) in duplicate 2×150 μL. Data were collected in a Fluorescence Plate reader from Biotek Synergy™ H4 Hybrid Multi-Mode at fixed intervals of 10 min, each preceded by 300 s of auto mixing (agitation), over a period of up to 60 hours at 40° C. Physical stability, expressed as lag-time of fibril formation (in hours), was defined as the intersection between two linear regressions representing the initial stable phase and the growth phase.
Physical stability was evaluated in terms of fibril formation by ThT-stress test measured over 60 hours at 40° C. Initial peptide particle size (z-average) was also determined by DLS.

[2] = Dynamic light scattering (DLS) (ASSAY IIIc), peptide particle size; type: physicochemical; settings: initial z-average by DLS, 1 mg/ml CPD 1, 20 mM TRIS, 118 mM NaCl
Procedure: Dynamic Light Scattering (DLS) (ASSAY IIIc)
Peptide particle size distribution was determined with dynamic light scattering analysis. The standard DLS experiment is conducted in a nunc 96 well plate with a sample volume of 165 μL and measured in a DynaPro Plate reader II instrument. Typically used parameters were temperature at 25° C., acquisition time 2 s, 50 acquisitions per sample, Detection: Hydrodynamic radius Rh, Correlation function cut off [μs]: […] and Peak radius cut off [nm]: 0.5-1000.

[3] = Solubility test: CPD 1 dissolved in alkaline MQW by stirring, visual control; type: physicochemical; settings: in MQW (alkaline, NaOH)
Procedure: To test solubility, CPD 1 was dissolved in alkaline MQW (pH adjusted with NaOH) by stirring.

pI of the peptide = type: physicochemical
hAMYR1 = hAMYR1 (Homo sapiens, UniProt P30988); settings: as described in WO 2018/046719; cited from earlier work
Sequence of hAMYR1 (O60894 27-148 partner, one chain of several): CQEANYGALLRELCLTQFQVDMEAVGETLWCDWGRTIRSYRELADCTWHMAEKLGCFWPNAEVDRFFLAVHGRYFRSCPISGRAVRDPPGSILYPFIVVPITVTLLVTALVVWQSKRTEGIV

hAMYR2 = hAMYR2 (Homo sapiens, UniProt P30988); settings: as described in WO 2018/046719; cited from earlier work
Sequence of hAMYR2 (O60895 43-175 partner, one chain of several): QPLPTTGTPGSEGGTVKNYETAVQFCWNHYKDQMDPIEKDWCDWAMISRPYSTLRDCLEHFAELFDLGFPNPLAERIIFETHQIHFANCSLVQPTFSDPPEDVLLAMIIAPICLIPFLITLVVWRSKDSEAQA

hAMYR3 = biological target: T1, hAMYR3 (Homo sapiens, UniProt P30988); settings: as described in WO 2018/046719; cited from earlier work
T1 sequence (P30988 25-474): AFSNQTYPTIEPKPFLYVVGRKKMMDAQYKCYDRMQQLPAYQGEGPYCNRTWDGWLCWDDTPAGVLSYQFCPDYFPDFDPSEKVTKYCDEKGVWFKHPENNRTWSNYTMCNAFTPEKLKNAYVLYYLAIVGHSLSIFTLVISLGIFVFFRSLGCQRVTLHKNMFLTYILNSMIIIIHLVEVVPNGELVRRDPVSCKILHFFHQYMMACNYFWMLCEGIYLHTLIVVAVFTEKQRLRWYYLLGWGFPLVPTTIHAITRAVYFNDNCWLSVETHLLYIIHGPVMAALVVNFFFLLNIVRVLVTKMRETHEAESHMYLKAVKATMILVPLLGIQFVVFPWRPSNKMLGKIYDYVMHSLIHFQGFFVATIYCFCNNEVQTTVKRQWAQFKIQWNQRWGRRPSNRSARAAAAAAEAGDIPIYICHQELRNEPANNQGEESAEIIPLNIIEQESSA
T1 sequence (O60896 24-148 partner): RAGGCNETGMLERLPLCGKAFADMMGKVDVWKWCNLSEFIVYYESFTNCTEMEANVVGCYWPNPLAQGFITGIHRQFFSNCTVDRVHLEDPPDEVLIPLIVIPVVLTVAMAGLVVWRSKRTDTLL

[4] = human trials; cited from earlier work

Compound | ThT lag time ([1]; pH 5.8, ThT-stress test over 60 hours at 40° C.) | ThT lag time ([1]; pH 6.0, over 60 hours at 40° C.) | ThT lag time ([1]; pH 6.3, over 60 hours at 40° C.) | ThT lag time ([1]; pH 6.6, over 60 hours at 40° C.) | ThT lag time ([1]; pH 6.8, over 60 hours at 40° C.) | ThT lag time ([1]; pH 7.0, over 60 hours at 40° C.) | stability towards fibrillation and aggregation ([1]; pH range 5.8-7.0, ThT-stress test and DLS (Table 3)) | Peptide particle size (nm) ([2]; pH 5.8) | Peptide particle size (nm) ([2]; pH 6.0) | Peptide particle size (nm) ([2]; pH 6.3) | Peptide particle size (nm) ([2]; pH 6.6) | Peptide particle size (nm) ([2]; pH 6.8) | Peptide particle size (nm) ([2]; pH 7.0) | Concentration at which CPD 1 could be dissolved to a clear solution [3] | pI of the peptide (pI of the peptide) | agonist activity at hAMYR1 (hAMYR1) | agonist activity at hAMYR2 (hAMYR2) | agonist activity at hAMYR3 (hAMYR3) | effect on body weight [4]
[19CD]-isoGlu-RD( )GTATK( )ATERLA-Aad-FLQRSSF-Gly(Me)-A-Ile(Me)-LSSTEVGSNT-Hyp-NH2 ({C20 diacid}-[γGlu]RDGTATKATERLA[Aad]FLQRSSF[Sar]A[NMeI]LSSTEVGSNT[Hyp]-NH2; lactam 3-8) [CPD 1] | >60 h | >60 h | >60 h | >60 h | >60 h | >60 h | stable towards fibrillation and aggregation impacting peptide particle size | 3.3 nm | 4.0 nm | 3.2 nm | 3.0 nm | 3.7 nm | 3.0 nm | up to 50 mg/ml | 4.36 | agonist activity | agonist activity | agonist activity | –
CC[C@H](C)[C@H](NC(=O)[C@@H]1CCCN1C(=O)CNC(=O)[C@H](Cc1ccccc1)NC(=O)[C@H](CC(N)=O)NC(=O)[C@H](CC(N)=O)NC(=O)[C@H](CO)NC(=O)[C@H](CO)NC(=O)[C@H](Cc1c[nH]cn1)NC(=O)[C@@H](NC(=O)[C@H](CC(C)C)NC(=O)[C@H](Cc1ccccc1)NC(=O)[C@H](CC(N)=O)NC(=O)[C@H](C)NC(=O)[C@H](CC(C)C)NC(=O)[C@H](CCCNC(=N)N)NC(=O)[C@H](CCC(N)=O)NC(=O)[C@@H](NC(=O)[C@H](C)NC(=O)[C@@H]1CSSC[C@H](NC(=O)[C@@H](N)CCCCN)C(=O)N[C@@H](CC(N)=O)C(=O)N[C@@H]([C@@H](C)O)C(=O)N[C@@H](C)C(=O)N[C@@H]([C@@H](C)O)C(=O)N1)[C@@H](C)O)C(C)C)C(=O)N[C@@H](CC(C)C)C(=O)N1CCC[C@H]1C(=O)N1CCC[C@H]1C(=O)N[C@H](C(=O)N[C@@H](CC(N)=O)C(=O)N[C@H](C(=O)NCC(=O)N[C@@H](CO)C(=O)N[C@@H](CC(N)=O)C(=O)N[C@H](C(=O)N[C@@H](Cc1ccc(O)cc1)C(N)=O)[C@@H](C)O)C(C)C)[C@@H](C)O [pramlintide] | – | – | – | – | – | – | – | – | – | – | – | – | – | – | – | – | – | – | reduce body weight or reduce weight gain

Reference: patent US12616737B2, “Liquid formulations of amylin analogues” (Zealand Pharma A/S, priority 2022, dated 2026)
